Laboratory results reported in patent US20260209386A1 (MYTHIC THERAPEUTICS, published 2026).
Changes are numbered by the printed parent chain.

T1: Human PTK7 Protein, His Tag (Acro Biosystems) (human, UniProt Q13308 31-704)
T1 construct: Bought recombinant protein; also called CCK4; tyrosine-protein kinase-like 7; not shown: His tag
T1 sequence: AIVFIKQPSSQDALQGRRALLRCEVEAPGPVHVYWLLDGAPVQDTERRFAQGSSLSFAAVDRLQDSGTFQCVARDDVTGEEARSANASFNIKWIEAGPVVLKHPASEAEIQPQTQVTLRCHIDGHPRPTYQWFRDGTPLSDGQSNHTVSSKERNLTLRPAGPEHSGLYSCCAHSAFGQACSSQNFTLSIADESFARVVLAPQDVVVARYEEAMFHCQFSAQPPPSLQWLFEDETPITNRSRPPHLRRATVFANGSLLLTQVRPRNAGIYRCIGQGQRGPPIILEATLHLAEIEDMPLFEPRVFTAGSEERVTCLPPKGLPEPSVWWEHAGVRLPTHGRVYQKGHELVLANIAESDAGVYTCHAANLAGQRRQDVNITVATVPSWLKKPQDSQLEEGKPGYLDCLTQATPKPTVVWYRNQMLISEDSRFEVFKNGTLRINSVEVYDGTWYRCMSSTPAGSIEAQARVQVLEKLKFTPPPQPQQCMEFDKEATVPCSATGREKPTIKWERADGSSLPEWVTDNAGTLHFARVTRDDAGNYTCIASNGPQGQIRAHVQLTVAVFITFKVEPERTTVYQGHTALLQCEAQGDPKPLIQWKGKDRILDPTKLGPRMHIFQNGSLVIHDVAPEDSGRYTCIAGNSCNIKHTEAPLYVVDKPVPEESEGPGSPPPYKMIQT

T2: Human PTK7 Protein, His Tag, Acro Biosystems (human, UniProt Q13308 31-704)
T2 construct: Bought protein; also called CCK4; not shown: His tag
T2 sequence: T1 sequence

B1: MYT11341 (antibody, V domains shown)
VH: EVQLVESGGGLVQPGGSLRLSCTASGIHLSNYAVIWVRQAPGKGLEWVGIIYTYDTTYYANWAKGRFTISRDTSKNTVYLQMNSLRAEDTAVYFCARSFSDISDLIKLWGQGTLVTVSS
VL: EIVMTQSPSTLSASVGDRVIITCQASQSLYNNKDLAWYQQKPGKAPKLLIYEASKLASGVPSRFSGSGSGAEFTLTISSLQPDDFATYYCLGEFSCGSGDCLAFGQGTKLTVL
notes: MYT9797 HC variant; captured via anti-human Fc
B2: MYT11345 (antibody, V domains shown)
VH: B1 VH with H28D, Y32H
VL: B1 VL
notes: as for B1
B3: MYT11339 (antibody, V domains shown)
VH: B1 VH with G26H, H28D
VL: B1 VL
notes: as for B1
B4: MYT11343 (antibody, V domains shown)
VH: B1 VH with H28D, S30H
VL: B1 VL
notes: as for B1
B5: MYT11344 (antibody, V domains shown)
VH: B1 VH with H28D, N31H
VL: B1 VL
notes: as for B1
B6: MYT11342 (antibody, V domains shown)
VH: B1 VH with H28D, L29H
VL: B1 VL
notes: as for B1
B7: MYT11340 (antibody, V domains shown)
VH: B1 VH with I27H, H28D
VL: B1 VL
notes: as for B1
B8: MYT11198 (antibody, V domains shown)
VH: EVQLVESGGGLVQPGGSLRLSCTASGIDLSSYVMGWVRQAPGKGLEWVGYIYGGGGTHYATWARGRFTISRDTSKNTVYLQMNSLRAEDTAVYFCARAAADFYFNLWGQGTLVTVSS
VL: EIVMTQSPSTLSASVGDRVIITCQASQSISSYLAWYQQKPGKAPKLLIYDISDLASGVPSRFSGSGSGAEFTLTISSLQPDDFATYYCQSYYWISNSGAAFGQGTKLTVL
notes: HC variant of MYT9460, sub at HCV pos 58 (H2 09)
B9: MYT11219 (antibody, V domains shown)
VH: B8 VH with H58Y, D101A
VL: B8 VL
notes: HC variant of MYT9460, printed as H3 05 with HCV pos 101, new residue not marked
B10: MYT11215 (antibody, V domains shown)
VH: B8 VH with H58Y, N105H
VL: B8 VL
B11: MYT11237 (antibody, V domains shown)
VH: B8 VH with H58Y
VL: B8 VL with S56H
notes: LC variant of MYT9460, sub at LCV pos 56 (L2 07)
B12: MYT11231 (antibody, V domains shown)
VH: B8 VH with H58Y
VL: B8 VL with D50H
notes: LC variant of MYT9460, sub at LCV pos 50 (L2 01)
B13: MYT11242 (antibody, V domains shown)
VH: B8 VH with H58Y
VL: B8 VL with W93H
notes: LC variant of MYT9460, sub at LCV pos 93 (L3 05)
B14: MYT11203 (antibody, V domains shown)
VH: B8 VH with H58Y, A63H
VL: B8 VL
notes: HC variant of MYT9460, sub at HCV pos 63 (H2 14)
B15: MYT11200 (antibody, V domains shown)
VH: B8 VH with H58Y, A60H
VL: B8 VL
notes: HC variant of MYT9460, sub at HCV pos 60 (H2 11)
B16: MYT11201 (antibody, V domains shown)
VH: B8 VH with H58Y, T61H
VL: B8 VL
notes: HC variant of MYT9460, sub at HCV pos 61 (H2 12)
B17: MYT11239 (antibody, V domains shown)
VH: B8 VH with H58Y
VL: B8 VL with S90H
notes: LC variant of MYT9460, sub at LCV pos 90 (L3 02)
B18: MYT11209 (antibody, V domains shown)
VH: B8 VH with H58Y, A99H
VL: B8 VL
notes: HC variant of MYT9460, sub at HCV pos 99 (H3 04)
B19: MYT11220 (antibody, V domains shown)
VH: B8 VH with H58Y
VL: B8 VL with Q24H
notes: LC variant of MYT9460, sub at LCV pos 24 (L1 01)
B20: MYT11216 (antibody, V domains shown)
VH: B8 VH with H58Y, L106H
VL: B8 VL
B21: MYT11218 (antibody, V domains shown)
VH: B8 VH with D28A, H58Y
VL: B8 VL
notes: HC variant of MYT9460, sub at HCV pos 28 (H1 03), second variant at this position, new residue not marked
B22: MYT11235 (antibody, V domains shown)
VH: B8 VH with H58Y
VL: B8 VL with L54H
notes: LC variant of MYT9460, sub at LCV pos 54 (L2 05)
B23: MYT11233 (antibody, V domains shown)
VH: B8 VH with H58Y
VL: B8 VL with S52H
notes: LC variant of MYT9460, sub at LCV pos 52 (L2 03)
B24: MYT11226 (antibody, V domains shown)
VH: B8 VH with H58Y
VL: B8 VL with S30H
notes: LC variant of MYT9460, sub at LCV pos 30 (L1 07)
B25: MYT11251 (antibody, V domains shown)
VH: B8 VH with H58Y
VL: B8 VL with D50A
notes: LC variant of MYT9460, Ala sub at LCV pos 50 (L2 01)
B26: MYT11227 (antibody, V domains shown)
VH: B8 VH with H58Y
VL: B8 VL with S31H
notes: LC variant of MYT9460, sub at LCV pos 31 (L1 08)
B27: MYT11217 (antibody, V domains shown)
VH: B8 VH with H58Y, F94Y
VL: B8 VL
B28: MYT11241 (antibody, V domains shown)
VH: B8 VH with H58Y
VL: B8 VL with Y92H
notes: LC variant of MYT9460, sub at LCV pos 92 (L3 04)
B29: MYT11207 (antibody, V domains shown)
VH: B8 VH with H58Y, R97H
VL: B8 VL
notes: HC variant of MYT9460, sub at HCV pos 97 (H3 02)
B30: MYT11199 (antibody, V domains shown)
VH: B8 VH with H58Y, Y59H
VL: B8 VL
notes: HC variant of MYT9460, sub at HCV pos 59 (H2 10)
B31: MYT11234 (antibody, V domains shown)
VH: B8 VH with H58Y
VL: B8 VL with D53H
notes: LC variant of MYT9460, sub at LCV pos 53 (L2 04)
B32: MYT11206 (antibody, V domains shown)
VH: B8 VH with H58Y, A96H
VL: B8 VL
notes: HC variant of MYT9460, sub at HCV pos 96 (H3 01)
B33: MYT11252 (antibody, V domains shown)
VH: B8 VH with H58Y
VL: B8 VL with D53A
notes: LC variant of MYT9460, Ala sub at LCV pos 53 (L2 04)
B34: MYT11228 (antibody, V domains shown)
VH: B8 VH with H58Y
VL: B8 VL with Y32H
notes: LC variant of MYT9460, sub at LCV pos 32 (L1 09)
B35: MYT11223 (antibody, V domains shown)
VH: B8 VH with H58Y
VL: B8 VL with Q27H
notes: LC variant of MYT9460, sub at LCV pos 27 (L1 04)
B36: MYT11202 (antibody, V domains shown)
VH: B8 VH with H58Y, W62H
VL: B8 VL
notes: HC variant of MYT9460, sub at HCV pos 62 (H2 13)
B37: MYT11205 (antibody, V domains shown)
VH: B8 VH with H58Y, G65H
VL: B8 VL
notes: HC variant of MYT9460, sub at HCV pos 65 (H2 16)
B38: MYT11214 (antibody, V domains shown)
VH: B8 VH with H58Y, F104H
VL: B8 VL
notes: HC variant of MYT9460, sub at HCV pos 104 (H3 09)
B39: MYT11208 (antibody, V domains shown)
VH: B8 VH with H58Y, A98H
VL: B8 VL
notes: HC variant of MYT9460, sub at HCV pos 98 (H3 03)

These binders were tested against T1, Human PTK7 Protein, His Tag (Acro …) (assay: BLI, antibody on anti-human Fc sensor, 50 nM PTK7 at pH 7.4, dissociation at pH 7.4 or 5.4; 2 = substantially similar binding relative to parent).

binding result | Binder
binds | B1
binds | B2
binds | B3
binds | B4
binds | B5
binds | B6
binds | B7

Each binder was assayed against T2, Human PTK7 Protein, His Tag, Acro … (assay: BLI (Octet), antibody on anti-human Fc sensor, 50 nM PTK7, dissociation at pH 7.4 or 5.4; 2 = substantially similar binding relative to parent).

binding result | Binder
binds | B8
binds | B9
binds | B10
binds | B11
binds | B12
binds | B13
binds | B14
binds | B15
binds | B16
binds | B17
binds | B18
binds | B19
binds | B20
binds | B21
binds | B22
binds | B23

binding result | Binder
binds | B24
binds | B25
binds | B26
binds | B27
binds | B28
binds | B29
binds | B30
binds | B31
binds | B32
binds | B33
binds | B34
binds | B35
binds | B36
binds | B37
binds | B38
binds | B39
